The target of series [1] is T1, Mos1 transposase (Drosophila mauritiana) (UniProt Q7JQ07).
T1 sequence: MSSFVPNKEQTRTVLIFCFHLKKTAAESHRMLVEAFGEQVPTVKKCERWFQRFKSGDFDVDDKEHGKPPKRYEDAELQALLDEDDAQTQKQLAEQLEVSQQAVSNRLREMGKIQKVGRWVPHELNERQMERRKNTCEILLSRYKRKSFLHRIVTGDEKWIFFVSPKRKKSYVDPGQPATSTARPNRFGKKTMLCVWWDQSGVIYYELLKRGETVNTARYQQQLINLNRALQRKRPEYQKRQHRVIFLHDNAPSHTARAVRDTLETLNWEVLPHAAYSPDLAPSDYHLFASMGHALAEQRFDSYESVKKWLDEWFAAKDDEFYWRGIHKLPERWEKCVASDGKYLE
The experiment in a line: cell_activity. The following applies: glh-2 promoter, C. elegans germline.

Series [2] concerns TC3A transposase (Caenorhabditis elegans). In words: cell_activity. The following applies: ced-9 promoter; 0.1% with glh-2 promoter.

On to “Mos1 transposon in integrated array oxIs25”, for which the activity (% chromosomes with catastrophic excision) in series [1] was 20.9.
In turn, Tc3 element in unc-22(r750::Tc3) showed an activity (% germline reversion) in series [2] of 2.
